Source: patent US20180291083A1 (IMMATICS BIOTECHNOLOGIES, published 2018)

Assays:
[1] = biological target: T1, HLA-B*07:02 (human); assay: UV ligand exchange ELISA; exchange yield grade
T1 construct: Peptide-receptive MHC class I monomer made by UV cleavage of a UV-sensitive ligand
Excerpt: (§1) Candidate peptides for T cell based therapies according to the present invention were further tested for their MHC binding capacity (affinity). The individual peptide-MHC complexes were produced by UV-ligand exchange, where a UV-sensitive peptide is cleaved upon UV-irradiation, and exchanged with the peptide of interest as analyzed. Only peptide candidates that can effectively bind and stabilize the peptide-receptive MHC molecules prevent dissociation of the MHC complexes. To determine the yield of the exchange reaction, an ELISA was performed based on the detection of the light chain (β2m) of stabilized MHC complexes. The assay was performed as generally described in Rodenko et al. (Rodenko et al., 2006).
(§2) 96 well MAXISorp plates (NUNC) were coated over night with 2 ug/ml streptavidin in PBS at room temperature, washed 4× and blocked for 1 h at 37° C. in 2% BSA containing blocking buffer. Refolded HLA-A*02:01/MLA-001 monomers served as standards, covering the range of 15-500 ng/ml. Peptide-MHC monomers of the UV-exchange reaction were diluted 100-fold in blocking buffer. Samples were incubated for 1 h at 37° C., washed four times, incubated with 2 ug/ml HRP conjugated anti-β2m for 1 h at 37° C., washed again and detected with TMB solution that is stopped with […]. Absorption was measured at 450 nm. Candidate peptides that show a high exchange yield (preferably higher than 50%, most preferred higher than 75%) are generally preferred for a generation and production of antibodies or fragments thereof, and/or T cell receptors or fragments thereof, as they show sufficient avidity to the MHC molecules and prevent dissociation of the MHC complexes.

[2] = biological target: T2, HLA-A*03:01 (human); assay: UV ligand exchange ELISA; exchange yield grade
T2 construct: Peptide-receptive MHC class I monomer made by UV cleavage of a UV-sensitive ligand
Excerpt: as §1, §2

Binder	peptide exchange yield [1]	peptide exchange yield [2]
APAPAEKTPV	50 to 75%	–
SPFSFHHVL	20 to 50%	–
LPKVQSIQL	20 to 50%	–
MPSSDTTVTF	50 to 75%	–
SPLSHHSQL	20 to 50%	–
QPSPARAPAEL	20 to 50%	–
LPYDSKHQI	20 to 50%	–
SPADHRGYASL	20 to 50%	–
VPNLQTVSV	20 to 50%	–
QPRLFTMDL	50 to 75%	–
RPHIPISKL	20 to 50%	–
RPFADLLGTAF	50 to 75%	–
SPRNLQPQRAAL	50 to 75%	–
YPGSDRIML	20 to 50%	–
VILESIFLK	–	20 to 50%
RIYDEILQSK	–	20 to 50%
RTYGFVLTF	–	20 to 50%
KTSNIVKIK	–	20 to 50%
SVFEGDSIVLK	–	20 to 50%
SVYSETSNMDK	–	50 to 75%
ATKSPAKPK	–	50 to 75%
KAKAAAKPK	–	20 to 50%
KAKKPAGAAK	–	50 to 75%
KARKSAGAAK	–	50 to 75%
RSKEYIRKK	–	10 to 20%
SVAHLLSKY	–	20 to 50%
SVSSSTHFTR	–	20 to 50%
KLMETSMGF	–	20 to 50%
KVYDPVSEY	–	20 to 50%
VVFPFPVNK	–	50 to 75%
